Patent publication US20240366726A1 (Genentech, published 2024)

T1: cynomolgus monkey CD122/CD132 on lymphocytes (NK cells and CD8+ T cells in cynomolgus monkey PBMCs) (cynomolgus monkey, UniProt Q38J85 27-551; A0A2K5VGJ6 23-369)
T1 sequence (looked up) 1: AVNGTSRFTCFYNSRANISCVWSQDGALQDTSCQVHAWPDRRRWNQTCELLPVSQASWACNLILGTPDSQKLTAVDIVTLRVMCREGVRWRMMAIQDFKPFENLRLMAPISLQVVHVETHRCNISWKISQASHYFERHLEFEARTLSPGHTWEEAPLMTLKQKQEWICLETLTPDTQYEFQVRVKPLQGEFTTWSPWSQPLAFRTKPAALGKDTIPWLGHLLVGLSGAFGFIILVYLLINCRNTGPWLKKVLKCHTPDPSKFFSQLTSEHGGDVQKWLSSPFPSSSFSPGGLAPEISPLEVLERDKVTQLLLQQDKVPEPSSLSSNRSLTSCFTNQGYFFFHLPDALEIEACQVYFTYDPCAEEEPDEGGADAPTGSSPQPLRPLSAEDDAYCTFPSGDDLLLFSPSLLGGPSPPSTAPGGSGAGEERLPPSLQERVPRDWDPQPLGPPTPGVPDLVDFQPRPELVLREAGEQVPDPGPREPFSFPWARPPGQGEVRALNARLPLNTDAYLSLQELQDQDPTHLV
T1 sequence (looked up) 2: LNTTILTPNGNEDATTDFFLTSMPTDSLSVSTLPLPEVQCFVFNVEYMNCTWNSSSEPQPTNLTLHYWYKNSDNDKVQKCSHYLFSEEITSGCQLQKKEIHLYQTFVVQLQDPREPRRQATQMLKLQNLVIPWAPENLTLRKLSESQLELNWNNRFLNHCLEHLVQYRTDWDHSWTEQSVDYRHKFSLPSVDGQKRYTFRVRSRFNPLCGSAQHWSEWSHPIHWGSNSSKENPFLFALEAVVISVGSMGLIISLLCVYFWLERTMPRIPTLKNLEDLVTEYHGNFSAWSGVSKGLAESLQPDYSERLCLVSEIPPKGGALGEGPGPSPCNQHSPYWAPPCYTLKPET

T2: human CD122/CD132 on lymphocytes (NK cells and CD8+ T cells in human PBMCs) (human, UniProt P31785 23-369)
T2 sequence 1: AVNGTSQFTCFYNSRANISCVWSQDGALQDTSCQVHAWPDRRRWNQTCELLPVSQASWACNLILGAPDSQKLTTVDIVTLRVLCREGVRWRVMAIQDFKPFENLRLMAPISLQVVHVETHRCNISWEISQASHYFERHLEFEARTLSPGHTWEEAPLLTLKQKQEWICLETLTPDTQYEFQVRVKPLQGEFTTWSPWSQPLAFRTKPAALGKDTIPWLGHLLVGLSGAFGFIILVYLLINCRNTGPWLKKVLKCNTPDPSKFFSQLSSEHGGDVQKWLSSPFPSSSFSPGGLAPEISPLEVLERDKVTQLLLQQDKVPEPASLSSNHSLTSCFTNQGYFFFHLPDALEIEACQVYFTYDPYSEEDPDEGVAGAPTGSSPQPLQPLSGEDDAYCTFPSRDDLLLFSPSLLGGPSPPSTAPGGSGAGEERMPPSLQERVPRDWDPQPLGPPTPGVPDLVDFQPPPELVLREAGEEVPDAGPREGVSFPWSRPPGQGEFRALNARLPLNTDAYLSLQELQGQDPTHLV
T2 sequence 2: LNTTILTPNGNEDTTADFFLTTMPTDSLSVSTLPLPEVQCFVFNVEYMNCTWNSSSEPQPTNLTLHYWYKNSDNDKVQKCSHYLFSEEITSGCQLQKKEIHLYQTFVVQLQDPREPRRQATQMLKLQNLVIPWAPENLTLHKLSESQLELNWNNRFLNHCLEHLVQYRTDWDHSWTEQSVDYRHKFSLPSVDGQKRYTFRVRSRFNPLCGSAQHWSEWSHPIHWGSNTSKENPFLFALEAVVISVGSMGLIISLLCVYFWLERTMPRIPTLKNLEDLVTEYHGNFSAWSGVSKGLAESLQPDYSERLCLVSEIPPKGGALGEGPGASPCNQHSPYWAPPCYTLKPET

T3: mouse FcRn (mouse, UniProt Q61559 22-297; P01887 21-119)
T3 construct: also called neonatal Fc receptor
T3 sequence (looked up): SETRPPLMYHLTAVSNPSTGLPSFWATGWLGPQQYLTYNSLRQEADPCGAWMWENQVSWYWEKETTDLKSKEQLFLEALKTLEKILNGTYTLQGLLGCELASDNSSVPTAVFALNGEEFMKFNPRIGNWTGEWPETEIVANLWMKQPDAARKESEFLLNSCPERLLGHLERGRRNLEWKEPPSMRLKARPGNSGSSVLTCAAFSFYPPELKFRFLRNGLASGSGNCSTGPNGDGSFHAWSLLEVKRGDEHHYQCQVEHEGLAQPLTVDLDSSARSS
T3 sequence (b2m, looked up): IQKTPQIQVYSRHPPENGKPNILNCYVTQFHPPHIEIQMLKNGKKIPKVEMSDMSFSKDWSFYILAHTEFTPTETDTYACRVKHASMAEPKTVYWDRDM


Columns and labels:
[1] = biological target: T1, cynomolgus monkey CD122/CD132 on …; assay: cell-based or functional assay
[2] = biological target: T2, human CD122/CD132 on lymphocytes (NK …); assay: cell-based or functional assay
cynomolgus monkey FcRn = biological target: T4, cynomolgus monkey FcRn (cynomolgus monkey, UniProt Q8SPV9 24-297; Q8SPW0 21-119); assay: Bio-Layer Interferometry, pH 6.0; tested as ~82%/~18% mixture
T4 construct: also called neonatal Fc receptor
T4 sequence (Q8SPV9 24-297 limits assumed, chain 1 of 2): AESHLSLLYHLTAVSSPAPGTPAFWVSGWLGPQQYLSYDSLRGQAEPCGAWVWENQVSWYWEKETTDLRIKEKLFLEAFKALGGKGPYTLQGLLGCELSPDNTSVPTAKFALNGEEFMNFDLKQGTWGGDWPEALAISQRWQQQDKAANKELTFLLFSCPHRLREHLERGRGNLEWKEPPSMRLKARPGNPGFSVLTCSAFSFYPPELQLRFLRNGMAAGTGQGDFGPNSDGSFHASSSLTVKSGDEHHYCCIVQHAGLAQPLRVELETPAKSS
T4 sequence (Q8SPW0 21-119 limits assumed, chain 2 of 2): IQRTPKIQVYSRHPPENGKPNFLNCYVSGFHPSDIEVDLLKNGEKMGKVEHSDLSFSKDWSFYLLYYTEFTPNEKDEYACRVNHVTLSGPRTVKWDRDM

mouse FcRn = biological target: T3, mouse FcRn; assay: as above
human FcRn = biological target: T5, human FcRn (human, UniProt P55899 24-297; P61769 21-119); assay: as above
T5 construct: also called neonatal Fc receptor

[3] = biological target: human complement component 1q (C1q) (human, UniProt P02745 23-245; P02746 28-253; P02747 29-245); assay: BLI; tested as XENP24306+XENP32803
human complement component 1q (C1q), sequence (P02745 23-245 limits assumed, chain 1 of 3): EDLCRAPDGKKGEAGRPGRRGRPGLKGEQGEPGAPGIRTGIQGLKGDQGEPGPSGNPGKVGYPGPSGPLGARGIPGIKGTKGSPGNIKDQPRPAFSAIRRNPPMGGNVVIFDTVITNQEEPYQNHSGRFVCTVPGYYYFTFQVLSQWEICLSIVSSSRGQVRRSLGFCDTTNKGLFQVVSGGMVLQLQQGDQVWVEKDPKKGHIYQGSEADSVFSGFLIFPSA
human complement component 1q (C1q), sequence (P02746 28-253 limits assumed, chain 2 of 3): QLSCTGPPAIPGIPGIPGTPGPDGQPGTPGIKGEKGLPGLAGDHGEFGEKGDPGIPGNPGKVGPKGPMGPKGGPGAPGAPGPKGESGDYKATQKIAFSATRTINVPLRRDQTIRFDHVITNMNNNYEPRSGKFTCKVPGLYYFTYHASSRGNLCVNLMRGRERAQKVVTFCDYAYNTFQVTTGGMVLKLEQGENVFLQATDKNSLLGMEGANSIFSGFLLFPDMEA
human complement component 1q (C1q), sequence (P02747 29-245 limits assumed, chain 3 of 3): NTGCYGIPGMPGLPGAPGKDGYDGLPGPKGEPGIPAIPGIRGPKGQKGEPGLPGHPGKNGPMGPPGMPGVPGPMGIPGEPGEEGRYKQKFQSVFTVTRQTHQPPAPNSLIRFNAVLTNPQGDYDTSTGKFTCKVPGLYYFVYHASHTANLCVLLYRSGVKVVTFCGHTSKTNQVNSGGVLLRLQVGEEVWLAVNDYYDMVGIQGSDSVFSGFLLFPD

| EC50 of CD8+ T cell proliferation in cynomolgus monkey PBMCs [1] | EC50 of NK-cell proliferation in cynomolgus monkey PBMCs [1] | EC50 of human CD8+ T cell proliferation (Ki67+) in human PBMCs [2] | EC50 of human NK-cell proliferation (Ki67+) in human PBMCs [2] | potency on human CD8+ terminal effector T cells (Ki67 proliferation), fold lower than recombinant wild-type IL-15 [2] | potency on human CD8+ terminal effector T cells (Ki67 proliferation), fold lower than wild-type IL-15/wild-type IL-15Rα heterodimer Fc fusion XENP22853 [2] | binding result (cynomolgus monkey FcRn) | binding result (mouse FcRn) | binding result (human FcRn) | binding result [3] | Binder |
| --- | --- | --- | --- | --- | --- | --- | --- | --- | --- | --- |
| 3.8 µg/mL | 0.5 µg/mL | 12.7 µg/mL | 1.2 µg/mL | ~900 fold | ~400 fold | binds | binds | binds | no binding | XENP24306 (Fc fusion, Never tested alone: every experiment used a combination of XENP24306 (~82%) and XENP32803 (~18%); Each result of the combination is written once for each of the two proteins; also called IL15/IL15Rα heterodimeric protein; XENP24306+XENP32803 (about 82% of the tested combination); copies: 1 + 1) chain 1: NWVNVISDLKKIEDLIQSMHIDATLYTESNVHPSCKVTAMKCFLLELQVISLESGDASIHDTVQDLIILANNSLSSNGNVTESGCKECEELEEKNIKEFLQSFVHIVQMFINTSGGGGSEPKSSDKTHTCPPCPAPPVAGPSVFLFPPKPKDTLMISRTPEVTCVVVDVKHEDPEVKFNWYVDGVEVHNAKTKPREEEYNSTYRVVSVLTVLHQDWLNGKEYKCKVSNKALPAPIEKTISKAKGQPREPQVYTLPPSREEMTKNQVSLTCDVSGFYPSDIAVEWESDGQPENNYKTTPPVLDSDGSFFLYSKLTVDKSRWEQGDVFSCSVLHEALHSHYTQKSLSLSPGK chain 2: ITCPPPMSVEHADIWVKSYSLYSRERYICNSGFKRKAGTSSLTECVLNKATNVAHWTTPSLKCIRGGGGSEPKSSDKTHTCPPCPAPPVAGPSVFLFPPKPKDTLMISRTPEVTCVVVDVKHEDPEVKFNWYVDGVEVHNAKTKPREEQYNSTYRVVSVLTVLHQDWLNGKEYKCKVSNKALPAPIEKTISKAKGQPREPQVYTLPPSREQMTKNQVKLTCLVKGFYPSDIAVEWESNGQPENNYKTTPPVLDSDGSFFLYSKLTVDKSRWQQGNVFSCSVLHEALHSHYTQKSLSLSPGK |
| 3.8 µg/mL | 0.5 µg/mL | 12.7 µg/mL | 1.2 µg/mL | ~900 fold | ~400 fold | binds | binds | binds | no binding | XENP32803 (Fc fusion, Never tested alone: every experiment used a combination of XENP24306 (~82%) and XENP32803 (~18%); Each result of the combination is written once for each of the two proteins; also called IL15/IL15Rα heterodimeric protein; XENP24306+XENP32803 (about 18% of the tested combination); copies: 1 + 1) chain 1: NWVNVISDLKKIEDLIQSMHIDATLYTESNVHPSCKVTAMKCFLLELQVISLESGDASIHDTVQDLIILANNSLSSNGNVTESGCKECEELEEKNIKEFLQSFVHIVQMFINTSGGGGSEPKSSDKTHTCPPCPAPPVAGPSVFLFPPKPKDTLMISRTPEVTCVVVDVKHEDPEVKFNWYVDGVEVHNAKTKPREEEYNSTYRVVSVLTVLHQDWLNGKEYKCKVSNKALPAPIEKTISKAKGQPREPQVYTLPPSREEMTKNQVSLTCDVSGFYPSDIAVEWESDGQPENNYKTTPPVLDSDGSFFLYSKLTVDKSRWEQGDVFSCSVLHEALHSHYTQKSLSLSPGK chain 2: ITCPPPMSVEHADIWVKSYSLYSRERYICNSGFKRKAGTSSLTECVLNKATNVAHWTTPSLKCIRGGGGSEPKSSDKTHTCPPCPAPPVAGPSVFLFPPTPKDTLMISRTPEVTCVVVDVKHEDPEVKFNWYVDGVEVHNAKTKPREEQYNSTYRVVSVLTVLHQDWLNGKEYKCKVSNKALPAPIEKTISKAKGQPREPQVYTLPPSREQMTKNQVKLTCLVKGFYPSDIAVEWESNGQPENNYKTTPPVLDSDGSFFLYSKLTVDKSRWQQGNVFSCSVLHEALHSHYTQKSLSLSPGK |
